The domain aggregation screens of Martell et al. (2025)

Assay: soluble fraction after stress (log2 fold change); higher = more stays soluble; pooled small domains, quantitative proteomics
Settings: stress: 75 degC
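Also: 20 min heating vs room temperature control held 20 min.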

Sequence	soluble fraction (log2)
HMKRDEYIAQLKKYLKRLPKKEYDSAIEYFTEYFDEAGPERELEVIQELGQPKEAAKEMLLQLLNE	-0.105
HMKRDNETRRRIVAAAEELFRAKGLDGVNMRELAEMAGVNKGLLHYYFKTKQALFREILVGQMAL	-1.31
HMKRDRLYGITIYLLNHGRTSAKTLAEYFEVSVRTIQRDMDALSMAKIPIIAYPGSDGGYEIQEGYRL	-3.03
HMKRDYELPAFIETYLKKNHVAIDTKSAAMIAEHIGADLSRLISELDKVMISLPDDDRRVTPDVVEREI	-0.0791
HMKREETLKALATKNANYVARSGRRYSFEPMNPYERRIIHTAVQEIEGVTSRSIGSGMDRRVLIEPEGGV	-0.322
HMKRELFVEPGMRLEHTPSKTSGPVVSFIEGVIVVIKDQLGSEHRFDPVPGFFRHEGDLVALRSPLL	-0.996
HMKRIDTILETFAKVHKHIPSKLILLGDGPELLDMRKIARSLHIEDDVLFLGKQDQVSKFYQMADLVLLL	-0.314
HMKRIHLSDEEKTDLESLHYSSNDGKQRDRIKAVLLRSEGWTVPMISQALRIHETTVTRYLNDYREGKLKN	-0.724
HMKRITKKELKQAIVDVFADKPGQSFNYKQLATIIGIKDDPTRRMITDILYELVQEERIVELYRGKFKMEM	-2.58
HMKRLPFSFAKRFGVVVEDGEPPIVHHRDGASAETLLEVRRRLGQVFTLQRHDAEAFERLLTQAYQR	-1.15
HMKRPEPESPEAERRSQRAADWLVRRDRGLTAAEQDEFLQWLAIDPRHGEWFALHRSVVGEFSA	-0.081
HMKRQDFEFLVNLLRQNAGWDFDEEQYFVVDKKISNFIREKGYASVEDLIDELKVGAKPLISQVVESLAL	-0.576
HMKRTFGEISPLPSGRYRARYRGPDGERYPAPVTFLSRMDAETWLSAQARKVSSGDWTPPVGVVA	-0.34
HMKRWHVGDPIDALTAAGKVPSWSTIRQRFWKTIAALYPDIEQSERLQRGLAMLDEAGTSIELHHP	-1.03
HMKRYLFEEVLAFLKHNDGKSFNYKQLGAAMEIDNESDRFALLETLEELKHQGFVIETDIGKYAAKE	-0.868
HMKSDELTKRRRLQIIEAAERSFRKRGFHATTLREIAAEFGMSVGHIYNYFSGKDAILEALIHQKIDD	-1.01
HMKSKHENLIDGLLKMISSMKPHDRLTPERQLAEEWAVSRMTLRRALEVLQFQGKIYTVPSSGLFVAEPK	-2.89
HMKSKPRVPFGSLVEMGILKPGSILFDPKGKIKTKVMVDGSIKYKETEGSIHKVAAQIMGTESYNGWTYW	0.488
HMKSLDDVISKFRPTGSENKIDFRKRVISEIHAQGFFKIKGSVNHVAKALGVTRYTVYNYLDKLND	-3.65
HMKSLLTHAEEFVRNNNGRWMLAETSSKESYSSKQNFYLRNNYSIISEIRDFYSVGDNLLVFGKFFT	0.201
HMKSNESAELGERMLNKALLALHTDSSKISDTQWQKLLRDYGAKNKQEILTDIGLGKRLNVMVAHQLMAMG	-0.271
HMKSNIGENIRQLREKREMSVERVARMLEVKPATVIGWESGRELPEPAELGLLAKLFDVTVEELN	-0.121
HMKSNKEKIYDFIQMHDTAEKEGGVSTTYIAQALSLQRTNVSSLLNALVEEGRIHKSNGRPVLYSIAG	-0.242
HMKSPAQAAALKKLWAAIKQNEQGEVVEVLFHNRKLTDAGLVHLKGLANLQTLNLYDTKITGAGLVHL	-0.0641
HMKSVLDDVAGLGPVRKKALLKAMGGFTRLRAASLDDILAVRAVPEEVAREVFAVLAQYNSVRNNDISE	-1.08
HMKSVTAPLPGTVTQILVKVGDAVKAGDTVLMLEAMKMENSITAEAAGTVKAIRVEKGAQVQGGDVLIEM	0.157

Sequence	soluble fraction (log2)
HMKTAAKVLGESGGKPVTVQSGRYGPYVQLGTIRATLPKDLDQEAVTLDKALELIDAKAERSGK	0.00631
HMKTDFEIDITVKASSLRVVASPGGDELVGTVTRGDRVTQLATPKDGWILIKMTDGRLGYVPESLLLFP	-1.87
HMKTEIGQAMRKLRKAKKMTQDTLAEKLGVAPANISRYEKGQQGIEVDKLPTLADALGVSVPEFFAIASG	0.0367
HMKTELAYDFHSRIRDARIREGLSQVDLAKRMNEKIAVIQKAENGIRPTDSLIAKFSKALSVELYVE	-2.12
HMKTGIIYGVNGPVIYLKGDTGFKISEMVYVGPEKLVGEVIGLKKHMTTVQVFEETTGLKPGETVIGTGDA	-0.378
HMKTGTVQDFIAKYGMSSKSPSSWFNSLTQIQKAEAKALKAQSGLTWNEWYEKNIYNGDGSNL	-0.0584
HMKTKHISIAEGMSLYTRDRSPFYWGYLNIEGVIHKKSLKTDVVDEAIKLLSIWKNELLNSITK	-1.19
HMKTKKYKGVYKDSKGKIYFQIELGVDPITGKRIQKKGRKNQQGLPFNSFKEAYEEILRLKHEFVNSTIN	-3.35
HMKTKTAPPDSIPPAWLKESATLRPDLNQAQIKASAEVFLDHHRAKGTTLADWRPAWRNWIRRERA	0.0178
HMKTLDAFFDQARDAYKKLKKDGDIDNLKVLRNQLQTVRETQGDAVRKKSKEEYRRLVDIIDDIDGLLAAF	-0.123
HMKTLSKEDIGFLSDEAVGEMRKAVANGEMLELRALIDQVGEKNPIVAEKLLTLVKQYDYENLNRVLE	0.102
HMKTPAPRETILSLFRQTPDGFVSGERISDELGVSRTAVWKHIRNLRQAGYQIEAIPSRGYQLQQS	-0.556
HMKTQFGTIVKQLRERKGMDQKQLGEIVGVSDKTVSSWEINRTEPKMGIVQQLADYFGVSTDYLIKG	0.306
HMKTRQVTVRNGRIEIFDKRFSTERLVFTAANLPVLEREGEVFTAGIPDSRDFINLWARDGSFAGSVPRV	-1.96
HMKTTSYAKLLRFLRTERDLSQITVAKQLGLSRASYLALEHGSRELSLSEAVKVTTLYGIRIDDLIVNH	-3.35
HMKTTVEVSPIARPGAVASGSVKFGSGVTAEWMLDQYGRLGLDKPTGKPTEQDIKEFQIELQKAL	0.0637
HMKVDLSEEEKTILELLKKESPQELETIKAASTLSNKKWDKAIKGLRKHNLAKVNKTDDGLFVELE	0.234
HMKVDRLISIVLVLLDKNRISAQELADMFEVSLRTIYRDIDAIELAGIPIRSTSGVGGGFEIMPNY	-1.11
HMKVKGVYQLDNGYWGYRFTMLVNGKTVSQRRVKDESGNPFKTEKKAEKARLVAMAEEQTKANK	-2.22
HMKVMTNAELGRIIKEARIARRMTQSEVVGDFITRNMLSQIENGNAAPSMRTLQYLMDVLDIHINIE	-3.02
HMKVNIGDQVYNQMKDQIMSGVWVPGEKIPSENQLMEVFGVSRGTVRQAIQKLSAVGLLETRRGEGSYVGQ	-0.136
HMKVQLGMNTREVRGIMGKPFSEDTFVEGEKRVDVLHYKEAVRVKTQGFILTTSLRFENDSLTAI	-1.62
HMKVRVFIERSNDGYSAYMPDDNNLPFGLTGDGKTAQEAMQDFLLARDEMKEFFIEEGKEFPEVEFDFS	-0.828
HMKVSAEEQNILDALQAAGGYLPFHDKSNPEEIYEAFGISKKTFKMIIGSLYKQQKINLTQTGIQLII	0.303
HMKVSDPEAIKLIEQAQVKVIPFLDISEAADIQIALEELKNSEGTGQTDSAKVRLRNLLSPFSYL	0.577
HMKVSFEIEINGVTKSINSINEAKEAISELQDIMDNSTFGSEEFKNAATQIDKLQNKLVEALDK	0.93

Sequence	soluble fraction (log2)
HMKVSVDLSMFEDDQTADRNAAVAWVVDELGAGGVDRTILMQLQSTGWSAEQSRAILDLASAGR	-0.311
HMKVTGSVQKKKGYYYIVVRLPTKNGTQYEQKQKWFNTKLKATPRNKTAAQVILAEKLTEYGGIV	-3.04
HMKVWYAGINAQRVGPMTLGAMEQQIRYGRVLFSTLIWKSPMPQWVPAGDVPELRRLLDEHMLNQMP	-0.841
HMKYFDRDLINYIQKTLAGKKIDFHEKIVPLIIELAGSDIRRVDEIIDMAEYSGKGMHVSEEMIRELAGDV	-0.715
HMKYKTKRDMILALMKKEILSGELKPRTRLLISEVASRYEVSEIPVREAFQVLIQEDLVRSTGAGFEVT	-2.36
HMKYPVYLQLADLIERKINKNEYPLGSKIPSERELIDAFGISRMTVRKAIEVLIEKGLLTRQHGKGTYVSQ	-2.26
HMKYSNDFDKVSYSLGLSIASNLISSGVKTLNAEAFNDGLATVFEGRMPEINPDEANKILQNFFEGLQKE	-0.278
HMKYSQAMIAQIIKHFHLPNNTVVTGEDVDAILLRSVDGGDGIYGGDVVSIWKYYKKQNDIQEIVT	-0.764
HMLAEEDRRRAERPGLDGNAVMVHLGIGPGRHVGEALAFLLEVRRSEGDLAVAELKSRIDAWWADR	-2.17
HMLAERKERDKAELKELILDAAKKILLKNGQEGLSIRKIATTVEYSPATIYLYFKDKDEILHELMEMG	0.123
HMLAHSEFGARLRETRKRLGLSQSELGGDRYSGSYISHLESGRRAASAEVIEFLAGRLGVEVEELGM	-0.406
HMLAIELDDKPGSLLRALEIFAKRNLNIEYMYAFTEKRGDKAVMIFKFSDIETAKKSLLEEGFN	-2.11
HMLAKNDSGLNNHTFNAIRDALLEALADGPAEAKKLTENISFPSDKIITVIRFLADHDDRFSLEDGILSLT	-0.738
HMLAKYEIIKQDIIQMIEEKKFKPGDKIYSEGELKKIYNVSSTTVVRALQDLVLSGYLIRKQGEGTYVRK	-3.2
HMLASDYEEELSVLIKMSHKIAAGDDSLMDDFNDRVTMFESSYPINKATKDLTPVLERVNKFQT	-0.908
HMLDDDAGMIQAILRKAPGHYLPLHDKSDPASIQAQLGISKAQFKRAVGTLMKQGLIRQVKGDGLYLTQ	-0.271
HMLDDESLHFFYKKDGWEYWMKTTTENNYPIQLRKKIGDEKVQEYWNGDKEKKKIGASYFGV	-0.465
HMLDFLVSKYESELLADLLWSLGVVAVEEREATGDLVTLRTSLGDDHSFTRELVQEKFPDVIVSTAL	-1.74
HMLDIVVGSTGYALGEITDHSGTVRVNGDTWTARLVDAAGPVEDGDRVEVYAVEGTTLLVYPS	-0.619
HMLDKEDNANAGKTLLERELSRAHLSDVEHRELAQRLHLASEQELYIKIGSGDLSIIQALNRAKEFKDT	-0.0269
HMLDKRSHAKKVLDAIEAVILGRATNDQLAYTINGRSLQKTPLPDLLRLRSQYQAEYQRELRAERIRKG	-0.697
HMLDLPVKTINGKQYYYYTVKKGDTVYSLITRFGITRSDLVESNPAAADVLKTGDTLYFAVDKFG	-1.19
HMLDLYYDSEDKLLIDMGTGEVIRSFADDKRSLVFDAQAKILFDEDSGDIVYSSYFDKLITDKLASKS	-0.396
HMLDPIQEGKKMLNSRLSGFGITPNTRLMNKLLAAYNISSREEFYGRIGAGIEDLSTLREVLLKGT	-0.973
HMLDQSYYETANEIISRYPLEEKSLIPIIQDIQATYRYLPPDLLDYVAKKIGITETKAYSVASFYENFSF	-0.721
